Literature values as cited in paper PMC6482830.

Biological target: eIF4E (Homo sapiens) (UniProt P06730)
Experiment: ITC

Sequence of UniProt P06730 (P06730 2-217): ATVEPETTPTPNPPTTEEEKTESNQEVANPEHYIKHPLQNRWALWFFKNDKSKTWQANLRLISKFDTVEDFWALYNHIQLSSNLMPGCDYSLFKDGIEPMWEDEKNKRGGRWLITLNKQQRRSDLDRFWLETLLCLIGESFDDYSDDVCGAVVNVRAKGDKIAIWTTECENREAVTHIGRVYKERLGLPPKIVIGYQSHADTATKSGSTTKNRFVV

Kd: 50 nM
Substance: 4E-BP1 peptide (from UniProt Q13541)
